Paper PMC7449927

B1: SIX1 (sine oculis homeobox homolog 1): T276A (protein)
parent chain: MSMLPSFGFTQEQVACVCEVLQQGGNLERLGRFLWSLPACDHLHKNESVLKAKAVVAFHRGNFRELYKILESHQFSPHNHPKLQQLWLKAHYVEAEKLRGRPLGAVGKYRVRRKFPLPRTIWDGEETSYCFKEKSRGVLREWYAHNPYPSPREKRELAEATGLTTTQVSNWFKNRRQRDRAAEAKERENTENNNSSSNKQNQLSPLEGGKPLMSSSEEEFSPPQSPDQNSVLLLQGNMGHARSSNYSLPGLTASQPSHGLQTHQHQLQDSLLGPLTSSLVDLGS
B2: SIX1 (sine oculis homeobox homolog 1): OGT knockdown (protein)
parent chain: B1 parent chain

Legend:
[1] = CHX chase western blot (half-life), TMG; settings: glycan lost; control: wild-type SIX1, TMG-treated
[2] = ubiquitin affinity bead pulldown, SIX1 blot, MG132 and NEM; settings: glycan lost; control: wild-type SIX1, TMG-treated
[3] = western blot, BEL7402-SIX1KO rescue cells, TMG; settings: glycan lost; control: wild-type SIX1, TMG-treated
[4] = western blot, BEL7402 and BEL7404 cells; settings: glycan lost; control: untreated / control lentivirus

Protein | degradation_or_half_life [1] | other: ubiquitination [2] | expression_or_secretion [3] | expression_or_secretion [4]
B1 | decreases | increases | decreases | 
B2 |  |  |  | decreases
